The chains are these.
B1: TBLR1-LgBiT wild type [not stated] / SETD5-SmBiT [not stated] (parent complex)
chain 1: MSISSDEVNFLVYRYLQESGFSHSAFTFGIESHISQSNINGALVPPAALISIIQKGLQYVEAEVSINEDGTLFDGRPIESLSLIDAVMPDVVQTRQQAYRDKLAQQQAAAAAAAAAAASQQGSAKNGENTANGEENGAHTIANNHTDMMEVDGDVEIPPNKAVVLRGHESEVFICAWNPVSDLLASGSGDSTARIWNLSENSTSGSTQLVLRHCIREGGQDVPSNKDVTSLDWNSEGTLLATGSYDGFARIWTKDGNLASTLGQHKGPIFALKWNKKGNFILSAGVDKTTIIWDAHTGEAKQQFPFHSAPALDVDWQSNNTFASCSTDMCIHVCKLGQDRPIKTFQGHTNEVNAIKWDPTGNLLASCSDDMTLKIWSMKQDNCVHDLQAHNKEIYTIKWSPTGPGTNNPNANLMLASASFDSTVRLWDVDRGICIHTLTKHQEPVYSVAFSPDGRYLASGSFDKCVHIWNTQTGALVHSYRGTGGIFEVCWNAAGDKVGASASDGSVCVLDLRK
chain 2: MSIAIPLGVTTSDTSYSDMAAGSDPESVEASPAVNEKSVYSTHNYGTTQRHGCRGLPYATIIPRSDLNGLPSPVEERCGDSPNSEGETVPTWCPCGLSQDGFLLNCDKCRGMSRGKVIRLHRRKQDNISGGDSSATESWDEELSPSTVLYTATQHTPTSITLTVRRTKPKKRKKSPEKGRAAPKTKKIKNSPSEAQNLDENTTEGWENRIRLWTDQYEEAFTNQYSADVQNALEQHLHSSKEFVGKPTILDTINKTELACNNTVIGSQMQLQLGRVTRVQKHRKILRAARDLALDTLIIEYRGKVMLRQQFEVNGHFFKKPYPFVLFYSKFNGVEMCVDARTFGNDARFIRRSCTPNAEVRHMIADGMIHLCIYAVSAITKDAEVTIAFDYEYSNCNYKVDCACHKGNRNCPIQKRNPNATELPLLPPPPSLPTIGAETRRRKARRKELEMEQQNEASEENNDQQSQEVPEKVTVSSDHEEVDNPEEKPEEEKEEVIDDQENLAHSRRTREDRKVEAIMHAFENLEKRKKRRDQPLEQSNSDVEITTTTSETPVGEETKTEAPESEVSNSVSNVTIPSTPQSVGVNTRRSSQAGDIAAEKLVPKPPPAKPSRPRPKSRISRYRTSSAQRLKRQKQANAQQAELSQAALEEGGSNSLVTPTEAGSLDSSGENRPLTGSDPTVVSITGSHVNRAASKYPKTKKYLVTEWLNDKAEKQECPVECPLRITTDPTVLATTLNMLPGLIHSPLICTTPKHYIRFGSPFIPERRRRPLLPDGTFSSCKKRWIKQALEEGMTQTSSVPQETRTQHLYQSNENSSSSSICKDNADLLSPLKKWKSRYLMEQNVTKLLRPLSPVTPPPPNSGSKSPQLATPGSSHPGEEECRNGYSLMFSPVTSLTTASRCNTPLQFELCHRKDLDLAKVGYLDSNTNSCADRPSLLNSGHSDLAPHPSLGPTSETGFPSRSGDGHQTLVRNSDQAFRTEFNLMYAYSPLNAMPRADGLYRGSPLVGDRKPLHLDGGYCSPAEGFSSRYEHGLMKDLSRGSLSPGGERACEGVPSAPQNPPQRKKVSLLEYRKRKQEAKENSAGGGGDSAQSKSKSAGAGQGSSNSVSDTGAHGVQGSSARTPSSPHKKFSPSHSSMSHLEAVSPSDSRGTSSSHCRPQENISSRWMVPTSVERLREGGSIPKVLRSSVRVAQKGEPSPTWESNITEKDSDPADGEGPETLSSALSKGATVYSPSRYSYQLLQCDSPRTESQSLLQQSSSPFRGHPTQSPGYSYRTTALRPGNPPSHGSSESSLSSTSYSSPAHPVSTDSLAPFTGTPGYFSSQPHSGNSTGSNLPRRSCPSSAASPTLQGPSDSPTSDSVSQSSTGTLSSTSFPQNSRSSLPSDLRTISLPSAGQSAVYQASRVSAVSNSQHYPHRGSGGVHQYRLQPLQGSGVKTQTGLS

The variants in this test derive from B1. Nature of the test: NanoLuc complementation assay; n = 6–7 independent transfections per TBLR1 mutant; read off a plot.
For chain 1 MSISSDEVNFLVYRYLQESGFSHSAFTFGIESHISQSNINGALVPPAALISIIQKGLQYVEAEVSINEDGTLFDGRPIESLSLIDAVMPDVVQTRQQAYRDKLAQQQAAAAAAAAAAASQQGSAKNGENTANGEENGAHTIANNHTDMMEVDGDVEIPPNKAVVLRGHESEVFICAWNPVSDLLASGSGDSTARIWNLSENSTSGSTQLVLRHCIREGGQDVPSNKDVTSLDWNSEGTLLATGSYDGFARIWTKDGNLASTLGQHKGPIFALKWNKKGNFILSAGVDKTTIIWDAHTGEAKQQFPFHSAPALDVDWQSNNTFASCSTDMCIHVCKLGQDRPIKTFQGHTNEVNAIKWDPTGNLLASCSDDMTLKIWSMKQDNCVHDLQAHNKEIYTIKWSPTGPGTNNPNANLMLASASFDSTVRLWDVDRGICIHTLTKHQEPVYSVAFSPDGRYLASDSFDKCVHIWNTQTGALVHSYRGTGGIFEVCWNAAGDKVGASASDGSVCVLDLRK [chain 1 G460D], the ratio to parent is around 0.07.

Regarding chain 1 MSISSDEVNFLVYRYLQESGFSHSAFTFGIESHISQSNINGALVPPAALISIIQKGLQYVEAEVSINEDGTLFDGRPIESLSLIDAVMPDVVQTRQQAYRDKLAQQQAAAAAAAAAAASQQGSAKNGENTANGEENGAHTIANNHTDMMEVDGDVEIPPNKAVVLRGHESEVFICAWNPVSDLLASGSGDSTARIWNLSENSTSGSTQLVLRHCIREGGQDVPSNKDVTSLDWNSEGTLLATGSYDGFARIWTKDGNLASTLGQHKGPIFALKWNKKGNFILSAGVDKTTIIWDAHTGEAKQQFPFHSAPALDVDWQSNNTFASCSTDMCIHVCKLGQDRPIKTFQGHTNEVNAIKWDPTGNLLASCSDDMTLKIWSMKQDNCVHDLQAHNKEIYTIKWSPTGPGTNNPNANLMLARASFDSTVRLWDVDRGICIHTLTKHQEPVYSVAFSPDGRYLASGSFDKCVHIWNTQTGALVHSYRGTGGIFEVCWNAAGDKVGASASDGSVCVLDLRK [chain 1 S417R], the ratio to parent is around 0.06.

As to chain 1 MSISSDEVNFLVYRYLQESGFSHSAFTFGIESHISQSNINGALVPPAALISIIQKGLQYVEAEVSINEDGTLFDGRPIESLSLIDAVMPDVVQTRQQAYRDKLAQQQAAAAAAAAAAASQQGSAKNGENTANGEENGAHTIANNHTDMMEVDGDVEIPPNKAVVLRGHESEVFICAWNPVSDLLASGSGDSTARIWNLSENSTSGSTQLVLRHCIREGGQDVPSNKDVTSLDWNSEGTLLATGSYDGFARIWTKDGNLASTLGQHKGPIFALKWNKKGNFILSAGVDKTTIIWDAHTGEAKQQFPFHSAPALDVDWQSNNSFASCSTDMCIHVCKLGQDRPIKTFQGHTNEVNAIKWDPTGNLLASCSDDMTLKIWSMKQDNCVHDLQAHNKEIYTIKWSPTGPGTNNPNANLMLASASFDSTVRLWDVDRGICIHTLTKHQEPVYSVAFSPDGRYLASGSFDKCVHIWNTQTGALVHSYRGTGGIFEVCWNAAGDKVGASASDGSVCVLDLRK [chain 1 T321S], the ratio to parent is around 1.1.

With chain 1 MSISSDEVNFLVYRYLQESGFSHSAFTFGIESHISQSNINGALVPPAALISIIQKGLQYVEAEVSINEDGTLFDGRPIESLSLIDAVMPDVVQTRQQAYRDKLAQQQAAAAAAAAAAASQQGSAKNGENTANGEENGAHTIANNHTDMMEVDGDVEIPPNKAVVLRGHESEVFICAWNPVSDLLASGSGDSTARIWNLSENSTSGSTQLVLRHCIREGGQDVPSNKDVTSLDWNSEGTLLATGSYDGFARIWTKDGNLASTLGQHKGPIFALKWNKKGNFIPSAGVDKTTIIWDAHTGEAKQQFPFHSAPALDVDWQSNNTFASCSTDMCIHVCKLGQDRPIKTFQGHTNEVNAIKWDPTGNLLASCSDDMTLKIWSMKQDNCVHDLQAHNKEIYTIKWSPTGPGTNNPNANLMLASASFDSTVRLWDVDRGICIHTLTKHQEPVYSVAFSPDGRYLASGSFDKCVHIWNTQTGALVHSYRGTGGIFEVCWNAAGDKVGASASDGSVCVLDLRK [chain 1 L282P], the ratio to parent was around 0.05.

Regarding chain 1 MSISSDEVNFLVYRYLQESGFSHSAFTFGIESHISQSNINGALVPPAALISIIQKGLQYVEAEVSINEDGTLFDGRPIESLSLIDAVMPDVVQTRQQAYRDKLAQQQAAAAAAAAAAASQQGSAKNGENTANGEENGAHTIANNHTDMMEVDGDVEIPPNKAVVLRGHESEVFICAWNPVSDLLASGSGDSTARIWNLSENSTSGSTQLVLRHCIREGGQDVPSNKDVTSLDWNSEGTLLATGSYDGFARIWTKDGNLASTLGQHKGPIFALKWNKKGNFILSAGVDKTTIIWDAHTGEAKQQFPFHSAPALDVDWQSNNTFASCSTDMCIHVCKLGQDRPIKTFQGHTNEVNAIKWDPTGNLLASCSDDMTLKIWSMKQDNCVHDLQAHNKEIYTIKWSPTGPGTNNPNANLMLASASFDSTVRLWDVDRGICIHTLTKHQEPVCSVAFSPDGRYLASGSFDKCVHIWNTQTGALVHSYRGTGGIFEVCWNAAGDKVGASASDGSVCVLDLRK [chain 1 Y446C], the ratio to parent was around 1.3.

On to chain 1 MSISSDEVNFLVYRYLQESGFSHSAFTFGIESHISQSNINGALVPPAALISIIQKGLQYVEAEVSINEDGTLFDGRPIESLSLIDAVMPDVVQTRQQAYRDKLAQQQAAAAAAAAAAASQQGSAKNGENTANGEENGAHTIANNHTDMMEVDGDVEIPPNKAVVLRGHESEVFICAWNPVSDLLASGSGDSTARIWNLSENSTSGSTQLVLRHCIREGGQDVPSNKDVTSLDWNSEGTLLATGSCDGFARIWTKDGNLASTLGQHKGPIFALKWNKKGNFILSAGVDKTTIIWDAHTGEAKQQFPFHSAPALDVDWQSNNTFASCSTDMCIHVCKLGQDRPIKTFQGHTNEVNAIKWDPTGNLLASCSDDMTLKIWSMKQDNCVHDLQAHNKEIYTIKWSPTGPGTNNPNANLMLASASFDSTVRLWDVDRGICIHTLTKHQEPVYSVAFSPDGRYLASGSFDKCVHIWNTQTGALVHSYRGTGGIFEVCWNAAGDKVGASASDGSVCVLDLRK [chain 1 Y245C], for which the ratio to parent was around 1.2.

Source of the values: publication PMC13385800 (2026).
